The target in this test is PALB2 construct (UniProt Q86YC2). Kind of test: ITC; BRCA1 (control 0.6 mM, 17 injections; modified 0.255 mM, 32 injections) titrated into PALB2 at 0.06 mM in the cell; 25 °C; 50 mM NaCl, 25 mM sodium phosphate, pH 6.5; single binding site model. (In general: Isothermal titration calorimetry measures the heat released or taken up as one component is titrated into another.)
Chain of UniProt Q86YC2 (Q86YC2 whole entry): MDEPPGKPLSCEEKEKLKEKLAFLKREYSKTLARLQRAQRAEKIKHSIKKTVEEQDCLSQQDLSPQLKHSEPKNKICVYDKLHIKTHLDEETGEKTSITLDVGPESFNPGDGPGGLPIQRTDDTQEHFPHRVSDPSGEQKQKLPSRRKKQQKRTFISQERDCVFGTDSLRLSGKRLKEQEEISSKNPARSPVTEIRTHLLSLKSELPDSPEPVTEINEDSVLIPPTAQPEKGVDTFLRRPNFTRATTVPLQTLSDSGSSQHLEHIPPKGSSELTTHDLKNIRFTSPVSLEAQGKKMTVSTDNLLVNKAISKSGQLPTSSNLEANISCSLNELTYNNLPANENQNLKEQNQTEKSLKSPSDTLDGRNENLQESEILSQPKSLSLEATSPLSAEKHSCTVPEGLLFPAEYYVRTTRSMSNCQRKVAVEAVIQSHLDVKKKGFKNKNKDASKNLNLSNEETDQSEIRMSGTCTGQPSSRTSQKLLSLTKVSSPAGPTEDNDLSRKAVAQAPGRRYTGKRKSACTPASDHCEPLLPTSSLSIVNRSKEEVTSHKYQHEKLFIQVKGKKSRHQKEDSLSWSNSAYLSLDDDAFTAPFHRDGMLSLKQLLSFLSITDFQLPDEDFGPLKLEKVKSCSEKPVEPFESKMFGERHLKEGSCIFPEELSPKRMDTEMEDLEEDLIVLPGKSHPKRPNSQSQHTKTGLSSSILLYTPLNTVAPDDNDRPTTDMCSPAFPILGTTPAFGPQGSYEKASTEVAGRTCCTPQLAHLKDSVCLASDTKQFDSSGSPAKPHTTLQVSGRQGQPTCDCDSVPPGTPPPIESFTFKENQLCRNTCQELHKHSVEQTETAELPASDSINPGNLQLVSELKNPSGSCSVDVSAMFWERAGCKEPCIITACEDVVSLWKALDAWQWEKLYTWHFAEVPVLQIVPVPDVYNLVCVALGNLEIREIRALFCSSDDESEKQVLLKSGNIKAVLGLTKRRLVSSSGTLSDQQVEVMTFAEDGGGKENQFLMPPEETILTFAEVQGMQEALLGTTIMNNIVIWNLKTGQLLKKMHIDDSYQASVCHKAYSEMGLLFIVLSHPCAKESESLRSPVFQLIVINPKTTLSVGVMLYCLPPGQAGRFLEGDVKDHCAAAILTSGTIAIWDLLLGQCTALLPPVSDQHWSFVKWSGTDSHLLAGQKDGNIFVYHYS

B1: BRCA1 disordered PALB2-binding domain, residues 1377-1426, modified with dichlorotriazine 1 (indole-labeled) (domain or fragment)
chain: GPGSSVSEDCSGLSSQSDILTTQQRDTMQHNLIKLQQEMAELEAVLEQHGSQPS
modifications: a single 272 Da indole incorporation from dichlorotriazine 1; site not determined by MS/MS, the single lysine (residue 1406 in BRCA1) is the intended site
The term Kd denotes the equilibrium constant for the complex coming apart. Higher therefore signals lower affinity. With B1, the Kd came to 3 µM.

B2: BRCA1 disordered PALB2-binding domain, residues 1377-1426, control (unmodified) preparation (domain or fragment)
chain: B1 chain
As for B2, the Kd came to 4.1 µM.
